# Results from PMC3459973.
# Target: TFAP2 (AP-2) (UniProt P05549)
# Test: DNA pull-down, SILAC MS and immunoblot
# Details: PBB: 150 mM NaCl, 50 mM Tris/HCl pH 8.0, 10 mM MgCl2, 0.5% NP-40, protease inhibitor; 200 ug SILAC nuclear extract, 2 h at 4 C (automated: 8 C); elution 16 mM …
# TFAP2 (AP-2), sequence (P05549 whole entry): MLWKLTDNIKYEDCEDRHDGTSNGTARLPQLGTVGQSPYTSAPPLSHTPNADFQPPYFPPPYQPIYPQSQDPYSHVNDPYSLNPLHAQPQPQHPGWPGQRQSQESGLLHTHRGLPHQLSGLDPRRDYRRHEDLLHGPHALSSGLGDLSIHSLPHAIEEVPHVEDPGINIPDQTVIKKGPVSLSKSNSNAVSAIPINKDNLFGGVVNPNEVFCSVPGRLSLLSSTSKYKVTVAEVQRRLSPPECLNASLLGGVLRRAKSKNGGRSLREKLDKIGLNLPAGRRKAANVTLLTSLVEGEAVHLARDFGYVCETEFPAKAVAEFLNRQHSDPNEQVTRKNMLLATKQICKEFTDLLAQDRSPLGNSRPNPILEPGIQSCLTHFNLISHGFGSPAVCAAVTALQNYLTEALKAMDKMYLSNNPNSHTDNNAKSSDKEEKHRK
sequence,measurement,value
AACAAAACTGCAGGATCGAACTGACCGCCCGGGGCACGTGTC / TTGACACGTGCCCCGGGCGGTCAGTTCGATCCTGCAGTTTTG [AP2_C],binding signal (SILAC ratio C/A),10
